Reference: US20200230168, “NUCLEIC ACID OLIGOMERS AND USES THEREFOR” (Queensland University of Technology, published 2020)

Tests used:
THOC4 (ALYREF) [1] = target: T1, THOC4 (ALYREF) (UniProt Q86V81 Q86V81:2-257); test: SPR; LSA_In3E3 = 1
hSSB1 [2] = target: T2, hSSB1 (Homo sapiens, UniProt Q9BQ15 Q9BQ15:1-211); test: SPR; LSA_In3E3 = 1
hSSB1 [3] = target: T2, hSSB1; test: EMSA; conditions: label: FAM
Protocol: FIG. 15 is a graphic representation of hSSB1 EMSAs showing increasing concentrations of hSSB1 protein vs. 5 nM of FAM-labeled LSA_In3E3 sequence in either phosphorothioate (PS) or phosphodiester (PD) chemistry, or negative control sequence (Neg_C) in phosphorothioate chemistry. Graphs represent quantification of at least triplicate experiments, expressed as the fraction of oligomer compound bound to the protein. Purified protein was incubated with 5 nM of labeled oligomer compound for 15 min at 37° C. in a buffer consisting of 10 mM Tris-HCl (pH7.5), 100 mM KCl, 0.01% IGEPAL, 1 mM EDTA and 50 ng/μL BSA.
(§1) FAM-labeled non-targeting PS compound, LSA_In3E3, PD compounds, DNA_In3E3 and RNA_In3E3, and a negative control oligomer compound, NEGC, were incubated separately with purified mouse SSB1 (mSSB1), hSSB1 and human SSB2 (hSSB2) proteins.

THOC4 (ALYREF) [4] = target: T1, THOC4 (ALYREF); test: EMSA; 10 mM Tris pH 8.0, 100 mM NaCl, 1 mM EDTA, 37C
THOC4 (ALYREF) [5] = target: T1, THOC4 (ALYREF); test: SPR
hSSB1 [6] = target: T2, hSSB1; test: SPR
mSSB1 = mSSB1 (Mus musculus, UniProt Q8R2Y9 Q8R2Y9:1-212); test: EMSA; conditions: label: FAM
mSSB1, sequence (Q8R2Y9 whole entry, one chain of several): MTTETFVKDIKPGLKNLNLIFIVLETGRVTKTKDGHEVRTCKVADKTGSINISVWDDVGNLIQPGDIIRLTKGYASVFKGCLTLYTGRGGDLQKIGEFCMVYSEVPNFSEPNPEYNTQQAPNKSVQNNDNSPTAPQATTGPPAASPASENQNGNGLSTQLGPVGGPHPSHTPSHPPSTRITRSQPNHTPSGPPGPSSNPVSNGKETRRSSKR
Protocol: as §1

T2 sequence (Q9BQ15 whole entry, one chain of several): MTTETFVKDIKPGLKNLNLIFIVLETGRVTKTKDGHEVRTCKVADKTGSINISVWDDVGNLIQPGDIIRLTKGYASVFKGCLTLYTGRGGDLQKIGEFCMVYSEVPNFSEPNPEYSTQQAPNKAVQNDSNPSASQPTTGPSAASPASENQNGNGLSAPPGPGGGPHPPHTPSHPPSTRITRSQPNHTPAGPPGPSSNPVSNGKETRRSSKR

Row | Binder | binding signal (THOC4 (ALYREF) [1]) [normalized Rmax] | binding signal (hSSB1 [2]) [normalized Rmax] | other results
1 | AGUGAGCCGGACUUGCCU (ssRNA, 2'-OMe all, PS all) [In3E3 5' truncation 18 nt] | 0.84 | 0.84 | 
2 | CCAGUGAGCCGGAC (ssRNA, 2'-OMe all, PS all) [In3E3 3' truncation 14 nt] | 0.08 | 0.35 | 
3 | AGCCGGAC (ssRNA, 2'-OMe all, PS all [2'-OMe at 1-8 (all); PS at all linkages]) [In3E3 both-end truncation 8 nt] | -0.07 | 0.07 | 
4 | CCAGUGAGCCGGACUUGCCU (ssRNA, phosphodiester, unmodified ribose) [RNA_In3E3] |  |  | Kd (hSSB1 [3]): 137 nM
5 | CCAGUGAGCCGGACUUGCCU (ssRNA, PS all, no sugar modification) [In3E3 PS only (DKLS426690)] | 1.06 | 0.99 | 
6 | CUCUUGGCUGAGCCCAUCUC (ssRNA, 2'-OMe all, PS all) [cdca3_A_ATG-3] |  | 1.3 | Kd (THOC4 (ALYREF) [4]): 134 nM
7 | GCGGUGAACCGGAGUUGGCU (ssRNA, 2'-OMe all, full PS) [DKLS438994 (SEQ 66)] |  |  | binding signal (THOC4 (ALYREF) [5]): 1.11 normalized Rmax; binding signal (hSSB1 [6]): 1.03 normalized Rmax
8 | CUGAAGCGUACCCUUUGGUG (ssRNA, 2'-OMe all, PS all) [ASO_E3E4] |  | 0.75 | Kd (THOC4 (ALYREF) [4]): 70 nM
9 | CAGAGGCAGCAGUACGACGG (ssRNA, 2'-OMe all, PS all) [LSA_ATG] | 0.96 | 1.1 | 
10 | CCAGUGAGCCGGACUUG (ssRNA, 2'-OMe all, PS all) [In3E3 3' truncation 17 nt] | 0.69 | 0.59 | 
11 | GUGCAUGGAAUCACGGAGUGGUGCAUGGAA (ssRNA, 2'-OMe all, PS all) [Open_A 30-mer (DKLS722361)] | 1.53 | 4.08 | 
12 | CCAGUGAGCCGGACU (ssRNA, 2'-OMe all, PS all) [In3E3 3' truncation 15 nt] | -0.09 | 0.36 | 
13 | CCAGUGAGCC (ssRNA, 2'-OMe all, PS all) [In3E3 3' truncation 10 nt] | -0.01 | 0.11 | 
14 | CAGAGGCAGCAGUACGACGGCAGAGGCAGC (ssRNA, 2'-OMe all, PS all) [LSA_ATG 30-mer (DKLS428543)] | 1.21 | 1.89 | 
15 | GAGCCGGACUUGCCU (ssRNA, 2'-OMe all, PS all) [In3E3 5' truncation 15 nt] | 0.45 | 0.4 | 
16 | GUGAGCCGGACUUG (ssRNA, 2'-OMe all, PS all) [In3E3 both-end truncation 14 nt] | 0.48 | 0.45 | 
17 | CUCAUUCCUACCGACACCCC (ssRNA, 2'-OMe all, phosphodiester) [Neg_C 2'-OMe PD (DKLS341370)] | 0.08 | 0.37 | 
18 | GAGAACCGACUCGGGUAGAG (ssRNA, 2'-OMe all, PS all) [cdca3_L_ATG-3] |  | 1.09 | Kd (THOC4 (ALYREF) [4]): 58 nM
19 | UGAGCCGGACUUGCCU (ssRNA, 2'-OMe all, PS all) [In3E3 5' truncation 16 nt] | 0.24 | 0.48 | 
20 | CCAGUGAGCCGGACUUGCCU (ssDNA, deoxyuridine in place of T, phosphodiester) [DNA_In3E3] |  |  | Kd (hSSB1 [3]): 13.5 nM; Kd (mSSB1): 13.1 nM
21 | CACGUACCUUAGUGCCUCAC (ssRNA, 2'-OMe all, PS all) [Open_L_1] |  | 0.8 | Kd (THOC4 (ALYREF) [4]): 104 nM
22 | UGAGCCGGACUU (ssRNA, 2'-OMe all, PS all) [In3E3 both-end truncation 12 nt] | 0.08 | 0.2 | 
23 | CCAGUGAGCCGGACUU (ssRNA, 2'-OMe all, PS all) [In3E3 3' truncation 16 nt] | 0.38 | 0.4 | 
24 | CAGUGAGCCGGACUUGCCU (ssRNA, 2'-OMe all, PS all) [In3E3 5' truncation 19 nt] | 0.87 | 0.92 | 
25 | CCGGUGAGCGACACUAGGCU (ssRNA, 2'-OMe all, PS all) [In3LSA_scr3_4] | 0.66 | 0.77 | 

Row | Binder | binding signal (THOC4 (ALYREF) [1]) [normalized Rmax] | binding signal (hSSB1 [2]) [normalized Rmax] | other results
26 | CCAGUGAG (ssRNA, 2'-OMe all, PS all [2'-OMe at 1-8 (all); PS at all linkages]) [In3E3 3' truncation 8 nt] | -0.05 | 0.09 | 
27 | CCAGUGAGCCGGA (ssRNA, 2'-OMe all, PS all) [In3E3 3' truncation 13 nt] | 0.08 | 0.53 | 
28 | CGUGUCAUCCGCUCUCGACU (ssRNA, 2'-OMe all, PS all) [LSA_In3E3_CT4] | 0.21 | 0.8 | 
29 | GUGAGCCGGACUUGCCU (ssRNA, 2'-OMe all, PS all) [In3E3 5' truncation 17 nt] | 0.23 | 0.83 | 
30 | CUCAUUCCUACCGACACCCC (ssRNA, 2'-OMe all, phosphodiester, ZEN at both ends) [Neg_C ZEN (DKLS789189)] | 0.03 | 0.09 | 
31 | GGACUUGCCU (ssRNA, 2'-OMe all, PS all) [In3E3 5' truncation 10 nt] | -0.01 | 0.07 | 
32 | CAGAGGCAGCAGUACGACGG (ssRNA, 2'-OMe all, PS three at each end) [LSA_ATG 2'-OMe PS ends (DKLS286198)] |  | 0.17 | 
33 | CCAGUGAGCUGGACUUGCCU (ssRNA, 2'-OMe all, PS all) [In3LSA_CU] | 0.54 | 0.97 | 
34 | CCAGUGAGCCGGACUUGCCU (ssRNA, 2'-OMe all, phosphodiester, ZEN at both ends) [In3E3 ZEN (DKLS991101)] |  | 0.17 | 
35 | CCAGUGAGCCG (ssRNA, 2'-OMe all, full PS) [In3E3 3' truncation 11 nt] |  |  | binding signal (THOC4 (ALYREF) [5]): -0.03 normalized Rmax; binding signal (hSSB1 [6]): 0.15 normalized Rmax
36 | CCAGUGAGCCGGACUUGC (ssRNA, 2'-OMe all, PS all) [In3E3 3' truncation 18 nt] | 0.87 | 0.67 | 
37 | CCAGUGAGCCGGACUUGCC (ssRNA, 2'-OMe all, PS all) [In3E3 3' truncation 19 nt] | 0.9 | 0.68 | 
38 | CAGUGAGCCGGACUUGCC (ssRNA, 2'-OMe all, PS all) [In3E3 both-end truncation 18 nt] | 0.96 | 0.91 | 
39 | AGGCAAGUCCGGCUCACUGG (ssRNA, 2'-OMe all, PS all) [RevIn3LSA (DKLS481254)] | 0.76 | 0.82 | 
40 | GGAGGGAGUCGGACUUGUCU (ssRNA, 2'-OMe all, full PS) [DKLS444294 (SEQ 65)] |  |  | binding signal (THOC4 (ALYREF) [5]): 1.78 normalized Rmax; binding signal (hSSB1 [6]): 1.58 normalized Rmax
41 | AGCCGGACUUGCCU (ssRNA, 2'-OMe all, PS all) [In3E3 5' truncation 14 nt] | 0.09 | 0.3 | 
42 | CCAGUGAGCCGG (ssRNA, 2'-OMe all, PS all) [In3E3 3' truncation 12 nt] | 0 | 0.24 | 
43 | GUGCAUGGAAUCACGGAGUG (ssRNA, PS all, no sugar modification) [Open_A PS only (DKLS669778)] | 0.76 | 1.3 | 
44 | CAGAGGCAGCAGUACGACGG (ssRNA, PS all, no sugar modification) [LSA_ATG PS only (DKLS577569)] | 1.03 | 1.44 | 
45 | CGCGUCACUCGCACUCGCCU (ssRNA, 2'-OMe all, PS all) [LSA_In3E3_CT5] |  | 0.46 | Kd (THOC4 (ALYREF) [4]): 125 nM
46 | CCGGACUUGCCU (ssRNA, 2'-OMe all, PS all) [In3E3 5' truncation 12 nt] | 0.07 | 0.13 | 
47 | AGUGAGCCGGACUUGC (ssRNA, 2'-OMe all, PS all) [In3E3 both-end truncation 16 nt] | 0.68 | 0.71 | 
48 | GUGCAUGGAAUCACGGAGUG (ssRNA, 2'-OMe all, PS all) [Open_A_1] |  |  | Kd (THOC4 (ALYREF) [4]): 52 nM
49 | CCAGUGAGCCGGACUUGCCU (ssRNA, 2'-OMe all, PS three at each end) [In3E3 2'-OMe PS ends (DKLS621499)] |  | 0.12 | 
50 | CCAGACAGCUGGUGUCGCCU (ssRNA, 2'-OMe all, PS all) [In3LSA_scr3_5] | 0.43 | 0.75 | 
